Reference: patent US12655398B2, “Multipartite luciferase” (Promega Corporation, priority 2018, dated 2026)

Columns and labels:
p65 = test: Nuclear translocation assay (p65-HiBiT HeLa cells, LgBiT*-nuclear sensor); type: cell-based; conditions: for Time to reach maximum accumulation of p65 in the nucleus upon stimulation: real time measurement
Description: A nuclear translocation assay was developed using measuring p65 movement from cytosol to the nucleus under TNFa stimulus. The nuclear translocation assay was set up similar to the membrane translocation assay. […] The assay allows measurement of protein translocation in real time.

[1] = Effect of urea on activity; type: physicochemical
Description: To test activity in the presence of urea, each enzyme was diluted to 1 uM in TBS+0.01% BSA+0.01% Tergitol and further diluted to 2 nM in TBS+0.01% BSA+0.01% Tergitol. […] A two-fold titration series was prepared for each, starting with 10M urea in 25 mM Tris pH 7.5+0.01% Tergitol. 10 uM furimazine was added to each sample of the titration series, and 5 ul of each enzyme or enzyme+pep263 (SEQ ID NO: 35) were combined with 45 ul of each substrate additive mixture. Plates were incubated for 3 minutes and then read on GMM+.
To test the effect of prolonged exposure to urea, each enzyme was diluted to 1 uM, and a two-fold titration series was prepared starting with 10M urea in 25 mM Tris pH 7.5+0.01% Tergitol. 2 ul of each enzyme was added to 198 ul of the urea titration (10 nM final of each enzyme). The “no” additive control was TBS+0.01% BSA+0.01% Tergitol. Samples were incubated for 26 hours. After incubation, samples were diluted 1:10,000 into TBS+0.01% BSA+0.01% Tergitol (10 ul in 990 ul two times). […] 50 ul of each sample was combined with 50 ul of NanoGlo® buffer+50 uM Furimazine. Plates were incubated for 3 minutes and then read on GMM+.

SmTrip10 pep86 / pep263 = test: Luminescence of LgBiT and LgTrip 2098 E. coli lysates with complementary peptide; type: biochemical; conditions: E. coli lysate, 25 nM peptide
Description: (275 rpm) in a volume of 50 mL. From these cultures, 100× dilutions were made into the same media and the cultures grown at 37 C (275 rpm) for 3 h and then cooled to 25° C. before adding rhamnose (inducing agent for protein overexpression) to a final concentration of 0.2%. Cultures were then grown (induced) for 22 h at 25° C. (275 rpm) at which time cultures were harvested, and the resulting pellets stored at −20° C. until processing. To lyse cells, pellets were removed from −20° C., resuspended in 50 mL of PBS pH 7.2, and taken through 3 sequential freeze thaw cycles (−70° C. to 22° C.), centrifuged to produce soluble fractions, and then kept cold (on ice) until assaying. Lysates and peptide(s) (25 nm final concentration) were incubated together for 10 minutes at 25° C. prior to the addition of NanoGlo® reagent. After addition of reagent, plates were incubated for another 5 min at 35° C. and read over time to measure luminescence (RLU) using a Tecan Infinite F500 plate reader.

[2] = test system: SmTrip10 pep86 and SmTrip9 pep245; test: LgTrip 2098 activation by separate β9 and β10-like peptides; type: biochemical; conditions: 10× concentrated lysate, peptides at 500 nM
Description: The luminescence of LgTrip 2098 (SEQ ID NO: 31) was monitored over time in the presence of separate peptides corresponding to the β10 and β9 portions of the full-length luciferase (SmTrip10 pep86 (SEQ ID NO: 25) and SmTrip9 pep245) (SEQ ID NO: 23) (FIG. 2). Similar experimental protocols were used as in Example 1; however, a 10× concentrated lysate was used, Peptides SmTrip10 pep86 and SmTrip9 pep245 were used at 500 nM, and 0.001% Prionex added to reactions. […] Controls with no peptides added or only one of the peptides added produced near the background of the plate reader.

Effect of pH on activity = type: physicochemical; conditions: pH titration series of universal buffer
Description: A universal buffer was prepared containing 25 mM of each: NaCitrate, MES, PIPES, HEPES, TAPS, and Thiourea in 0.5% Tergitol. The buffer was divided into 8 aliquots of 20 ml, and NaOH or HCl was added to create a pH titration series.
To test effect of pH on activity, each enzyme was diluted to 1 uM and then diluted to 0.4 nM in 3 ml of TBS+0.01% BSA+0.01% Tergitol. […] Assay reagent for each pH buffer tested (Table 5) (20 ul of furimazine in 980 of buffer). 10 ul of each enzyme/peptide dilution was combined with 50 ul of assay reagent. Plates were incubated for 3 minutes and read on GMM+.
To test the effect of prolonged exposure varying pH, each enzyme was diluted to 1 uM in TBS+0.01% BSA+0.01% Tergitol, which was then diluted to 20 nM in each buffer. T=0 samples were mixed and then diluted 1:10 into 200 mM HEPES pH 7.5+0.01% BSA+0.01% Tergitol and stored at 4° C. T=8 samples were mixed and then diluted 1:10 into 200 mM HEPES pH 7.5+0.01% BSA+0.01% Tergitol store at 4° C. T=24 samples were mixed and then diluted 1:10 into 200 mM HEPES pH 7.5+0.01% BSA+0.01% Tergitol store at 4° C. […] 40 ul of each sample was diluted with 40 ul of NanoGlo® buffer+40 uM furimazine, incubated for 3 minutes, and then read on GMM+.

TNFα
EC50, titration of TNFα (p65; p65-HiBiT cell line transfected with LgBiT*-nuclear sensor): 0.7 ng/mL
Fold-response, titration of TNFα (p65; p65-HiBiT cells, LgBiT*-nuclear sensor): 4 fold
Time to reach maximum accumulation of p65 in the nucleus upon stimulation (p65): 30 min
Time to reach maximum accumulation of p65 in the nucleus upon stimulation (p65; listed as TNFa): approximately 30 min

B1: LgTrip 2098: β1-8-like polypeptide, SEQ ID NO: 17; SEQ ID NO: 31 with His tag (protein)
chain: MVFTLEDFVGDWEQTAAYNLDQVLEQGGVSSLLQNLAVSVTPIQRIVRSGENALKIDIHVIIPYEGLSADQMAQIEEVFKVVYPVDDHHFKVILPYGTLVIDGVTPNMLNYFGRPYEGIAVFDGKKITVTGTLWNGNKIIDERLITPD
Activity after prolonged (26 hour) exposure to urea ([1]; 26 hours incubation in urea titration): regain activity upon prolonged treatment with urea
Activity in the presence of urea (susceptibility to inactivation) ([1]; urea titration from 10M, with pep263 for LgBiT and LgTrip): least effected by urea
Gain in signal in the presence of complementary peptide (SmTrip10 pep86 / pep263): greater
Activation by separate β9 and β10 peptides [2]: activated by the addition of SmTrip10 pep86 and SmTrip9 pep245

B2: LgTrip: β1-8-like polypeptide corresponding to SEQ ID NO: 17; variants LgTrip 2098 and LgTrip 3546 (protein)
chain: MVFTLEDFVGDWEQTAAYNLDQVLEQGGVSSLLQNLAVSVTPIQRIVRSGENALKIDIHVIIPYEGLSADQMAQIEEVFKVVYPVDDHHFKVILPYGTLVIDGVTPNMLNYFGRPYEGIAVFDGKKITVTGTLWNGNKIIDERLITPD
Effect of pH on activity (Effect of pH on activity): resistant to a wide pH range
